Data: publication PMC6888414, “Two Homologous Enzymes of the GalU Family in Rhodococcus opacus 1CP—RoGalU1 and RoGalU2” (International Journal of Molecular Sciences, 2019)

Assays:
[1] = target: UDP-glucose pyrophosphorylase RoGalU2 of Rhodococcus opacus 1CP (Rhodococcus opacus 1CP); test: SEC; Superdex 200 10/300 GL, non-denaturing, 50 mM Hepes pH 7.0, 1 mM magnesium chloride; RoGalU2 at 0.2 and 2.0 mg/mL, in duplicates; mass from a calibration with standard proteins
[2] = substrate: O=c1ccn([C@@H]2O[C@H](COP(=O)(O)OP(=O)(O)OP(=O)(O)O)[C@@H](O)[C@H]2O)c(=O)[nH]1; test: HPLC of UDP-glucose formation, initial rates; type: biochemical, Rhodococcus opacus; settings: 250 mM glucose 1-phosphate, 1 mM MgCl2, 50 mM Hepes pH 7.4, 42 °C, UTP 0.01–5 mM, Yano and Koga substrate inhibition fit
Source text: (§1) HPLC of UDP-glucose formation, initial rates on RoGalU2

[3] = substrate: O=P(O)(O)O[C@H]1O[C@H](CO)[C@@H](O)[C@H](O)[C@H]1O; test: HPLC of UDP-glucose formation, initial rates; type: biochemical, Rhodococcus opacus; settings: 1.5 mM UTP, 1 mM MgCl2, 50 mM Hepes pH 7.4, 42 °C, glucose 1-phosphate 0.05–10 mM, Michaelis-Menten fit of the low range only, non-Michaelis behaviour above 10 mM
Source text: as §1

| Molecule | stoichiometry N [1] | Km [2] [µM] | kcat [2] [s⁻¹] | kcat/Km [2] [M⁻¹ s⁻¹] | Km [3] [µM] | kcat [3] [s⁻¹] | kcat/Km [3] [M⁻¹ s⁻¹] |
| --- | --- | --- | --- | --- | --- | --- | --- |
| UDP-glucose pyrophosphorylase RoGalU2 of Rhodococcus opacus 1CP (enzyme) | 6 |  |  |  |  |  |  |
| RoGalU2 (Rhodococcus opacus) (protein, full length, N-terminal His10 tag (pET16bP), codon-optimized gene in E. coli BL21(DE3) pLysS, HisTrap purified; 34 kDa subunit, hexamer by SEC (188 kDa)) MTDAAPHTASAFRTAVVPAAGMGTRFLPATKTVPKELLPVVDTPGIELVAGEAADSGAGRLVIVTSPGKDGVVAHFVEDLVLESKLEASGKYHLLEKVRKAPGLLEVESVIQDEPLGLGHAVGCAESVLDDDEDAIAVLLPDDLVMPRGVLETMSRVRRKRGGTVLCAIDVPKDQVSAYGVFEVETVPDATNPDVLKVIGMVEKPAIEDAPSTFAAAGRYLLDRAIFDALRRIEPGAGGELQLTDAIALLIKEGHPVHVVVHRGTRHDLGNPGGYLRAAVDFALDMEEYGPSLREWLIDRLKRTDS |  | 510 | 96.2 | 190000 | 900 | 3.7 | 4000 |
